Target: purified rat skin collagen type I (rat) (UniProt P02454)
Test: affinity chromatography

UniProt P02454, sequence (P02454 152-1207, chain 1 of 2): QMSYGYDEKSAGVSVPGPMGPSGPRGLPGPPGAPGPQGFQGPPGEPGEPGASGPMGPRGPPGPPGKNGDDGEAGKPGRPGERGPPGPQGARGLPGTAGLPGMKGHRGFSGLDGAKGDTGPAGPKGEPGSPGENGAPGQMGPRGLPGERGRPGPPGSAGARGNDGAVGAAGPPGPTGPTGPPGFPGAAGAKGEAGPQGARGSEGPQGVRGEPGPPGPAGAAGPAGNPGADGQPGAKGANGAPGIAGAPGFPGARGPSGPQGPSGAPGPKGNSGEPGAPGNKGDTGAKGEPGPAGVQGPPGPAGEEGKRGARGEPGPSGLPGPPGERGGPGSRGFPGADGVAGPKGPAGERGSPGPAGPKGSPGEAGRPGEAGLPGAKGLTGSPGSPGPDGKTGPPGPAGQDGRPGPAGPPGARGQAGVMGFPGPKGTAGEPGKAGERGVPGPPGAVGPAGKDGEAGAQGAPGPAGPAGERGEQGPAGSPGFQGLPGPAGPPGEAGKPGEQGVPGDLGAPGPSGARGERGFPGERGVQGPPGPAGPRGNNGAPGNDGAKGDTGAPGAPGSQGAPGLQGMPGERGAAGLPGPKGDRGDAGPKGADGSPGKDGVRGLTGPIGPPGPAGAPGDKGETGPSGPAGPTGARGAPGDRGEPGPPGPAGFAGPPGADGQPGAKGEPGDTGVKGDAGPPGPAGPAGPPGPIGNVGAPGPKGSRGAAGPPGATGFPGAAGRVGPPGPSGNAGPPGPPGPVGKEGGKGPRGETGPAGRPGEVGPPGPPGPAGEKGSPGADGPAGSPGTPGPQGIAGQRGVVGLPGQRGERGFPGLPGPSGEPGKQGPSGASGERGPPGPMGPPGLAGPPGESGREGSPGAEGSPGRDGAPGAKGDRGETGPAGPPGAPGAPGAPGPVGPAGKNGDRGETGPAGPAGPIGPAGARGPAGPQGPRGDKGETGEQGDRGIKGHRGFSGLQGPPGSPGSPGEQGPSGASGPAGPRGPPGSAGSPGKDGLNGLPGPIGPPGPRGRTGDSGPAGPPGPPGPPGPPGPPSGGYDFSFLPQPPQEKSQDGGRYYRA
UniProt P02454, sequence (P02466 86-1125, chain 2 of 2, further chain): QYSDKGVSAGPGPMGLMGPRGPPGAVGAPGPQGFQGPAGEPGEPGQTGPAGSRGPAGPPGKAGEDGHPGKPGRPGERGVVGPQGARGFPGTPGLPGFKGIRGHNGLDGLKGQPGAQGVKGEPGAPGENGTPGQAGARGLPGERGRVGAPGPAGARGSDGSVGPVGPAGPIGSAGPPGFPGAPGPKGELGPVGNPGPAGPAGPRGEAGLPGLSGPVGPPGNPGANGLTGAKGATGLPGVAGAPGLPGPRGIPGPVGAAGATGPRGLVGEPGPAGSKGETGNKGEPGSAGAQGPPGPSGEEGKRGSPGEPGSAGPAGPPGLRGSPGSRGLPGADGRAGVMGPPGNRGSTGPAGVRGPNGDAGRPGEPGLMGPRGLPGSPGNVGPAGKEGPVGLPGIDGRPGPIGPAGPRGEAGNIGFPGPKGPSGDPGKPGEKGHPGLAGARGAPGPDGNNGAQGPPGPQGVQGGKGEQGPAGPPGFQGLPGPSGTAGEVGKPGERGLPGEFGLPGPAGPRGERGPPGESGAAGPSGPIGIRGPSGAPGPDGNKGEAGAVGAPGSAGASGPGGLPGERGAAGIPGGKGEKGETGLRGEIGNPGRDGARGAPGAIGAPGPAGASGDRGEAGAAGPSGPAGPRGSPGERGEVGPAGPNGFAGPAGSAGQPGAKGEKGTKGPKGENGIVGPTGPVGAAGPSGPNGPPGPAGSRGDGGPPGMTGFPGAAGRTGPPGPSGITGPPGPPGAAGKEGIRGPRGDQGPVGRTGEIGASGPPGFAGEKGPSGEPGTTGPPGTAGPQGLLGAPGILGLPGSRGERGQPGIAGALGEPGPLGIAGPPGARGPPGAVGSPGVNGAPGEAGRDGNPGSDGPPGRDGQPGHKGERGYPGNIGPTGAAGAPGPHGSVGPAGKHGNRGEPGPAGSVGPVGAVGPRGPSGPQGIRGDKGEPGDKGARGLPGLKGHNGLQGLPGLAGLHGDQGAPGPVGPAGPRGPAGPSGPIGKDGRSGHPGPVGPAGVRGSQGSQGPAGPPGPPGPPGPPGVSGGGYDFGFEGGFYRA

Substance: human plasma fibronectin (natural protein)
- KBr concentration at which the bound fibronectin eluted: 1 M
